Measurements reported in patent US8802376B2, “Methods for identifying candidate cytotoxic antibody molecules” (Agency for Science, Technology and Research, priority 2010, dated 2014).

T1: PODXL over-expressed in HEK and COS cells (Homo sapiens, UniProt O00592)
T1 construct: expressed in transfected cells; host or cells: HEK or COS cells
T1 sequence (O00592 23-558): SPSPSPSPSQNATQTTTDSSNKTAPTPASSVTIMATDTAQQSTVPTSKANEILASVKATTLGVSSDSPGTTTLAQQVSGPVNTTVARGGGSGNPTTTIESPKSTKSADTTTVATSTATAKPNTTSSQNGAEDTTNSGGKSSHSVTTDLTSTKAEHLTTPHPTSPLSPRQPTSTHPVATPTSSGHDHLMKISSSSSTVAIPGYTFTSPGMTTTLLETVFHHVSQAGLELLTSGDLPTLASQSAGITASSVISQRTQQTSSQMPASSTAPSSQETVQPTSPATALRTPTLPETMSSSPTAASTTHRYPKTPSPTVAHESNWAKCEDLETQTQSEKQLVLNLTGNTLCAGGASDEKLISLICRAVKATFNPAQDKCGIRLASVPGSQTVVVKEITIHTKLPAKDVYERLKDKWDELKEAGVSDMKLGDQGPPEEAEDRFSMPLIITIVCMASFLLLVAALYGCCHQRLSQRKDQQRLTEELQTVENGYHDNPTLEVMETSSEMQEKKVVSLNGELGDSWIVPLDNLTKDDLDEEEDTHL

T2: PODXL from hESC (HES-3) (Homo sapiens, UniProt O00592)
T2 construct: mAb 84 only detected hESC—PODXL but not expressed PODXL; endogenous in cells; host or cells: hESC (HES-3)
T2 sequence (O00592 23-558): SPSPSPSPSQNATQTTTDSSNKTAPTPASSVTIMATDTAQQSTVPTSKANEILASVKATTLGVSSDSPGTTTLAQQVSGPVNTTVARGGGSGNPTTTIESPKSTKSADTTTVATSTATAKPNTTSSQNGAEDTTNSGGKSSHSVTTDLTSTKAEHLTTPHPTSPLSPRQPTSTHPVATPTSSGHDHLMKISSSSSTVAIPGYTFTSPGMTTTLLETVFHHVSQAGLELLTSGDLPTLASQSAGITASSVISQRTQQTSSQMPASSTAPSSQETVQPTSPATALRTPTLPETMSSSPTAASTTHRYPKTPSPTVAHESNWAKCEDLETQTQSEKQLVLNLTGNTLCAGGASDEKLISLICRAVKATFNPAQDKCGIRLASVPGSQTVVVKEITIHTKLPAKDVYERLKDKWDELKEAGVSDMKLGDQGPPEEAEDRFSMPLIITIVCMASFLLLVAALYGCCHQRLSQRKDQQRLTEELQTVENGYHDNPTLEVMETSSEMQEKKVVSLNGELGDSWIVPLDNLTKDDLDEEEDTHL

T3: unglycosylated PODXL (in vitro transcription and translation (TnT)) (Homo sapiens, UniProt O00592)
T3 construct: made in house; host or cells: in vitro transcription and translation (cell-free)
T3 sequence (O00592 23-558): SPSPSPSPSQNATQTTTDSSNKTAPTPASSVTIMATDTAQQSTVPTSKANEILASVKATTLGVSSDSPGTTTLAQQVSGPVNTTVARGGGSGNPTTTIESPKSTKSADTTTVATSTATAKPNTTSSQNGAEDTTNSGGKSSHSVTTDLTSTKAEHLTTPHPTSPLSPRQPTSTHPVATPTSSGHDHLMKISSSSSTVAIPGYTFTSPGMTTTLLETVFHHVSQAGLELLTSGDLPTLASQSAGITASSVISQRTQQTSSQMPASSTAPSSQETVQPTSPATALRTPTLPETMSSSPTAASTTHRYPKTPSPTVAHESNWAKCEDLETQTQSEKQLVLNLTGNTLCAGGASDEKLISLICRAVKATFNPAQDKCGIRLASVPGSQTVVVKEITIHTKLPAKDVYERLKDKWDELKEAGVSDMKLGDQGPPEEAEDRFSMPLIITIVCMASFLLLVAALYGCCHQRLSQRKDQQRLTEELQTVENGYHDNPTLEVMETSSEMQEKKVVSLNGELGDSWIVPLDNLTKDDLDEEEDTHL

T4: PODXL on the surface of hESCs (Homo sapiens, UniProt O00592)
T4 construct: mAb 84 only detected hESC—PODXL but not expressed PODXL; endogenous in cells; host or cells: hESC (HES-3)
T4 sequence (O00592 23-558): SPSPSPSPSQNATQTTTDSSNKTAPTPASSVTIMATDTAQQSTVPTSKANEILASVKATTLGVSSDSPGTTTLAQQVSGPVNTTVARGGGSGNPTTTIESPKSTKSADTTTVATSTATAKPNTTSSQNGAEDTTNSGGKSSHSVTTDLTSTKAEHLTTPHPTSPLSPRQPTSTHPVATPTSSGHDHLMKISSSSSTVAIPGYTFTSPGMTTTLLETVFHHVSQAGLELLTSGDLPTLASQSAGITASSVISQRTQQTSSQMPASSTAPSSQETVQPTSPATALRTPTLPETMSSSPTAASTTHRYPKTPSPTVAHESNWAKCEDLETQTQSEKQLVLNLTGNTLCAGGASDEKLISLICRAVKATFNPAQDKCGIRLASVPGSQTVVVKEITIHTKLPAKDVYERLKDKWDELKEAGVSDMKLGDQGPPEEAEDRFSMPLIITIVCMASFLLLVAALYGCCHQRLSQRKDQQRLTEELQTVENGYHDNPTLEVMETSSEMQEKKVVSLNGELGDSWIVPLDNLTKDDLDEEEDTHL


Legend:
[1] = tested on: human embryonic stem cells (hESC); assay: inhibition of mAb84 binding to hESC by soluble trisaccharide; format: cell-based; details: trisaccharide 0.4 mM, 0.8 mM, 2 mM, 4 mM; mAb84 (25 pM, 5 μg) in 200 μl, 2×10^5 hESC
Description: (§1) The importance of the trisaccharide Fucα1-2Galβ1-3GlcNA in mediating the cytotoxic interaction of mAb84 on human embryonic stem cells (hESC) was investigated by assessing the ability of synthetic soluble trisaccharide Fucα1-2Galβ1-3GlcNA to (i) inhibit the binding of mAb84 to hESC and (ii) reduce the cytotoxic effect of mAb84 on hESC.
(§2) mAb84 (25 pM, 5 μg) in 200 μl volume was added to 2×10^5 hESC and preincubated for 15 minutes prior to addition of synthetic soluble trisaccharide Fucα1-2Galβ1-3GlcN (in concentrations of 0 (control), 0.4 mM, 0.8 mM, 2 mM, 4 mM).

[2] = tested on: human embryonic stem cells (hESC); assay: relative viability of hESC in response to mAb84 with added trisaccharide; format: cell-based
Description: as §1, §2

[3] = tested on: undifferentiated human embryonic stem cells (hESC); details: cited from earlier work
[4] = tested on: IPSCs; details: WO/2010/033084; cited from earlier work
[5] = molecular target: T1, PODXL over-expressed in HEK and COS cells; assay: Western blot of COS and HEK expressed PODXL probed with antibodies; format: binding; details: SDS-PAGE
Description: (§3) The gene encoding PODXL was isolated and sequenced from hESC. The gene was cloned into vectors and expressed either unglycosylated (in vitro TnT) or in mammalian cells (HEK or COS cells which are capable of glycosylating the expressed protein).
(§4) The proteins obtained were then resolved on SDS-PAGE, Western blotted and probed with antibodies. The antibodies used were commercially available anti-PODXL antibodies (monoclonal and polyclonal) and mAb 84. […] For COS and HEK expressed PODXL, only monoclonal anti-PODXL detected both the expressed PODXL and PODXL from hESC.

[6] = molecular target: T2, PODXL from hESC (HES-3); assay: Western blot of PODXL from hESC probed with antibodies; format: binding; details: SDS-PAGE
Description: as §3, §4
In either COS or HEK cells, PODXL is glycosylated (and so has a higher MW). However the band is lower than PODXL expressed in hESC (HES-3). Also, mAb 84 only detected hESC—PODXL but not expressed PODXL. This led to the conclusion that there is a stem cell-specific modification (glycosylation) to PODXL. Without being bound by theory, it appears that when PODXL is glycosylated by stem cells the resulting glycan structure is different that of PODXL glycosylated by other cells.

[7] = Printed Glycan Array V4.1 (Consortium for Functional Glycomics) binding
Description: Buffers: • TSM=20 mM Tris-HCl, pH 7.4 150 mM NaCl, 2 mM CaCl2, 2 mM MgCl2 • TSM Wash Buffer (TSMW)=TSM Buffer+0.05% Tween-20 • TSM Binding Buffer (TSMBB)=TSM buffer+0.05% Tween 20+1% BSA
Protocol: • 1. Make working stocks of washing buffers (TSM, TSM Wash Buffer, and H2O) or collect reagents and bring to room temperature if they have been in the refrigerator. • 1.1. Buffer (A) TSM-20 mM Tris-HCl, pH 7.4 150 mM NaCl, 2 mM CaCl2, 2 mM MgCl2 • 1.2. Buffer (B) TSM Wash Buffer (TSMW)—TSM Buffer+0.05% Tween-20 • 1.3. Buffer (C) TSM Binding Buffer (TSMBB)—TSM buffer+0.05% Tween 20+1% BSA • 1.4. dH20 • 2. Prepare 100 μl of sample by diluting antibody in TSMBB or appropriate Binding Buffer based on properties of Antibody to a final concentration of 5-50 μg/ml or an appropriate concentration required for the analysis. • mAb84 antibodies were added at a concentration of 50 μg/ml. • mAb85 antibodies were added at a concentration of 50 μg/ml. • 3. Remove slide(s) from dessicator and label slide with sample name near barcode, outside of the black marks. • 4. […]
mAb84 antibodies were contacted with the glycans. […] Bound antibodies were detected using AlexaFluor-488-labeled secondary antibodies as described above. The secondary antibodies were then detected using a fluorescence scanner. Binding is presented in relative fluorescence units (RFU). […]

[8] = tested on: day 22 EB; assay: mAb 84-mediated killing on day 22 EB; format: cell-based, human
[9] = molecular target: T3, unglycosylated PODXL (in vitro transcription and translation (TnT)); assay: Western blot of in vitro TnT-expressed PODXL probed with antibodies; format: binding; details: SDS-PAGE
Description: as §3, §4

[10] = tested on: hESC; details: hESC treated with mAb 84 prior to transplantation into SCID mice; cited from earlier work
[11] = tested on: FGF2-starved hESC; assay: mAb 84-mediated killing on FGF2-starved hESC; format: cell-based, human
[12] = molecular target: T4, PODXL on the surface of hESCs; assay: kinetics of mAb84 binding to PODXL on the surface of hESCs
[13] = tested on: day 8 embyroid bodies; assay: mAb 84 binding reactivity to embryoid bodies; format: cell-based, human

| Molecule | inhibition of mAb84 binding to hESC [1] | cytotoxic effect of mAb84 on hESC (relative viability) ([2]; increasing concentrations of trisaccharide 0.4 mM, 0.8 mM, 2 mM, 4 mM) | cytotoxic effect of mAb84 on hESC (relative viability) ([2]; trisaccharide 2 mM) | cytotoxic effect of mAb84 on hESC (relative viability) ([2]; trisaccharide 4 mM) | cytotoxicity against undifferentiated hESCs ([3]; WO 2007/102787) | incubation time to cell death of undifferentiated hESC ([3]; undifferentiated hESC) | cytotoxicity against IPSCs [4] | detection of expressed (glycosylated) PODXL [5] | detection of PODXL from hESC [6] | relative binding (binding of mAb84 divided by binding of mAb85 to the same glycans) ([7]; 9 glycans containing Fucα1-2Galβ1-3GlcNAc, RFU values) | binding to glycans in the glycan array ([7]; 465 glycans, V4.1 array, Alexa488 labeled secondary antibody) | mAb 84-mediated killing [8] | detection of unglycosylated PODXL [9] | detection of unglycosylated PODXL ([9]; listed as mAb 84) | tumour formation [10] | mAb 84-mediated killing [11] | koff [12] | kon [12] | binding reactivity compared to undifferentiated hESC [13] |
| --- | --- | --- | --- | --- | --- | --- | --- | --- | --- | --- | --- | --- | --- | --- | --- | --- | --- | --- | --- |
| CC(=O)N[C@H]1C(O)O[C@H](CO)[C@@H](O)[C@@H]1O[C@@H]1O[C@H](CO)[C@H](O)[C@H](O)[C@H]1O[C@@H]1O[C@@H](C)[C@@H](O)[C@@H](O)[C@@H]1O (stereo partly shown) [Fucα1-2Galβ1-3GlcNAc] | dose dependently inhibit | reduction | abolished | abolished | – | – | – | – | – | – | – | – | – | – | – | – | – | – | – |
| mAb84: IgM monoclonal antibody which specifically binds and kills undifferentiated human embryonic stem cells; antigen is PODXL (antibody, V domains shown, Synthetic sequenceVH chain of mAb 84; Synthetic sequence VL chain of mAb 84, antigen is PODXL) VH: QVQLQQSGGGLVQPGGSMKLSCVASGFTFSNYWMNWVRQSPEKGLEWVAEIRLKSNNYATHYAESVKGRFTISRDDSKSSVYLQMNNLRAEDTGIYYCTGERAWGQGTTVTVSS VL: DIELTQSPAIMSASPGEKVTMTCSASSSVNYMYWYQQKPGSSPRLLIYDTSNLASGVPVRFSGSGSGTSYSLTISRMEAEDAATYYCQQWSSYPYTFGGGTKLEIKR | – | – | – | – | cytotoxic | ≤ 30 min | cytotoxic | does not bind | detected | at least 37 times | selectively bind | loss | did not detect | does not bind | absence of tumour formation | decrease | 0.0029 s⁻¹ | 7.1 e4 M^−1 s^−1 | reduced |
